Measured values reported in article doi:10.1101/2023.02.02.526371 (bioRxiv, 2023).

Molecular target: T1, recombinant PIF3-GST (Arabidopsis thaliana, UniProt O80536 1-524)
T1 sequence (looked up): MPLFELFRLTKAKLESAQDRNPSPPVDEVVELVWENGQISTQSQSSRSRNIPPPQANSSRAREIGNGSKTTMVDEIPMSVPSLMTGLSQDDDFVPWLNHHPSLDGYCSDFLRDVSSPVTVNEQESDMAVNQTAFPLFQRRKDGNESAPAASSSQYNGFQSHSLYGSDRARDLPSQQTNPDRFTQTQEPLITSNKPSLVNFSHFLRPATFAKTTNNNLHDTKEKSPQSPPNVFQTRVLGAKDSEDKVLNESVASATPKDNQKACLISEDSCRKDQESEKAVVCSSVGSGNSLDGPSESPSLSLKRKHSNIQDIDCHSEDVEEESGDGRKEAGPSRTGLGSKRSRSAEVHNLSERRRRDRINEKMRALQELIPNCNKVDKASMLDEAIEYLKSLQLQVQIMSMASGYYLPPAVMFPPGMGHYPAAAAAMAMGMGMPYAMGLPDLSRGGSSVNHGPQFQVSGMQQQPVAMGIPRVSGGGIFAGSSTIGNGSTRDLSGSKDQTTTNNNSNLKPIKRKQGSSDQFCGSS
Assay: pull-down

- binding result: binds
B1: His-tagged kinase domain of FER (518-816 amino acids, FER-KD) (domain or fragment)
chain: not shown
